Experimental data as given in patent US20220251159A1.
pKd: −log10 of the molar value.

Biological target: fluorescently labeled WTp53DBD (MST assay) (UniProt P04637)
Test: MST; FIG. 3D; myristoylated

fluorescently labeled WTp53DBD (MST assay), sequence (P04637 94-312): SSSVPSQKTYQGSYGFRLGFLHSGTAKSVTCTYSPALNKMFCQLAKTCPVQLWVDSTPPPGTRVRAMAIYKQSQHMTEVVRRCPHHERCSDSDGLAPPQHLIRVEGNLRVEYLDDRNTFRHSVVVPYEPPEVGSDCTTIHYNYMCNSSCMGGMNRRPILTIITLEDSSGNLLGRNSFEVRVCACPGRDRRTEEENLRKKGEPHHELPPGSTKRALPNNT

pKd: 4.52
Substance: pCAP-402 myr-HSTPHPD
